{
  "source": "paper PMC12645435",
  "about": "“Improved Nucleoside (2′-Deoxy)Ribosyltransferases Maximize Enzyme Promiscuity while Maintaining Catalytic Efficiency” (ACS Chemical Biology, 2025)",
  "key": {"[1]": {"molecular_target": "T1, CtNDT (Chroococcidiopsis thermalis, UniProt K9TVX3)", "T1 construct": "gene Chro_1188; homotetramer; residues 111 and 118 of the neighbouring subunit complete the site; expression host and tags only in supplement", "test": "steady-state kinetics (details in supplement)", "type": "biochemical", "conditions": "nucleobase acceptor; kcat/KM only said to be similar"}, "[2]": {"molecular_target": "T2, CtNDT (Chroococcidiopsis thermalis, UniProt K9TVX3, A9S)", "T2 construct": "gene Chro_1188; homotetramer; residues 111 and 118 of the neighbouring subunit complete the site; expression host and tags only in supplement", "T2 sequence (K9TVX3 entry or part of it A9S)": "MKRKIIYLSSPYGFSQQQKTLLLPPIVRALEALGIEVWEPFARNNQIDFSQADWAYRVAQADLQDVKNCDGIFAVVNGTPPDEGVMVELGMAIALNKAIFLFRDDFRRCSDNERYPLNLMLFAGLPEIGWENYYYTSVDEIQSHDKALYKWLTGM", "test": "HPLC initial rates, Michaelis-Menten", "type": "biochemical", "conditions": "adenine as nucleobase acceptor"}, "[3]": {"molecular_target": "T3, CtNDT (Chroococcidiopsis thermalis, UniProt K9TVX3, V85S)", "T3 construct": "gene Chro_1188; homotetramer; residues 111 and 118 of the neighbouring subunit complete the site; expression host and tags only in supplement", "T3 sequence (K9TVX3 entry or part of it V85S)": "as the sequence (K9TVX3 entry or part of it A9S) above, with S9A, V85S counted along it", "test": "HPLC initial rates, Michaelis-Menten", "type": "biochemical", "conditions": "adenine as nucleobase acceptor"}, "[4]": {"molecular_target": "T4, CtNDT (Chroococcidiopsis thermalis, UniProt K9TVX3, Y7F/A9S)", "T4 construct": "gene Chro_1188; homotetramer; residues 111 and 118 of the neighbouring subunit complete the site; expression host and tags only in supplement", "test": "X-ray crystal structure", "conditions": "active site, ribosyl-binding pocket"}, "[5]": {"molecular_target": "T5, CtNDT (Chroococcidiopsis thermalis, UniProt K9TVX3, Y7F)", "T5 construct": "gene Chro_1188; homotetramer; residues 111 and 118 of the neighbouring subunit complete the site; expression host and tags only in supplement", "test": "X-ray crystal structure", "type": "binding", "conditions": "active site; ligand placed in 2 of 4 protomers, less defined density"}, "[6]": {"molecular_target": "T6, CtNDT (Chroococcidiopsis thermalis, UniProt K9TVX3, A9S/Y7F)", "T6 construct": "gene Chro_1188; homotetramer; residues 111 and 118 of the neighbouring subunit complete the site; expression host and tags only in supplement", "test": "binding assay (details in supplement)"}, "[7]": {"substrate": "OC[C@H]1O[C@@H](n2cnc3c(O)ncnc32)[C@H](O)[C@@H]1O", "test": "HPLC initial rates, Michaelis-Menten", "type": "biochemical, Chroococcidiopsis thermalis", "conditions": "adenine as nucleobase acceptor"}, "[8]": {"substrate": "OC[C@H]1O[C@@H](n2cnc3c(O)ncnc32)[C@H](O)[C@@H]1O", "test": "HPLC initial rates, Michaelis-Menten", "type": "biochemical, Chroococcidiopsis thermalis", "conditions": "adenine as nucleobase acceptor", "source_text": "HPLC initial rates, Michaelis-Menten on CtNDT | evaluated with inosine as the sugar donor and adenine as the […]", "remark": "listed apart in the source"}},
  "data": [
    {"molecule": "O=c1[nH]c(=O)c2[nH]cnc2[nH]1", "note": "[xanthine]", "values": [
      {"measurement": "k cat/K M", "setting": "[1]", "value": "uric acid, xanthine, and hypoxanthine, which have similar k cat/K M values"}
    ]},
    {"molecule": "O=c1[nH]cnc2nc[nH]c12", "note": "[hypoxanthine]", "values": [
      {"measurement": "k cat/K M", "setting": "[1]", "value": "uric acid, xanthine, and hypoxanthine, which have similar k cat/K M values"}
    ]},
    {"molecule": "O=c1[nH]cnc2c1ncn2[C@@H]1O[C@H](CO)[C@@H](O)[C@H]1O", "note": "[inosine]", "values": [
      {"measurement": "K M-inosine", "setting": "[2]", "value": "These mutants had modest changes in K M‑inosine"},
      {"measurement": "K M-inosine", "setting": "[3]", "value": "These mutants had modest changes in K M‑inosine"}
    ]},
    {"molecule": "Nc1ncnc2c1ncn2[C@@H]1O[C@H](CO)C[C@H]1O", "note": "[cordycepin]", "values": [
      {"measurement": "X-ray crystal structure", "setting": "[4]", "value": "9EMXCtNDTY7F‑A9S bound to Cordycepin"}
    ]},
    {"molecule": "O=c1[nH]cnc2c([C@@H]3N[C@H](CO)[C@@H](O)[C@H]3O)c[nH]c12", "note": "[Immucillin-H]", "values": [
      {"measurement": "X-ray crystal structure", "setting": "[5]", "value": "9EMWCtNDTY7F bound to ImmH"},
      {"measurement": "Kd", "setting": "[6]", "value": 590, "unit": "µM"}
    ]},
    {"molecule": "CtNDT (Chroococcidiopsis thermalis PCC 7203; Y7A) (protein, homotetramer; residues 111 and 118 of the neighbouring subunit complete the site; expression host and tags only in supplement) MKRKIIALASPYGFSQQQKTLLLPPIVRALEALGIEVWEPFARNNQIDFSQADWAYRVAQADLQDVKNCDGIFAVVNGTPPDEGVMVELGMAIALNKAIFLFRDDFRRCSDNERYPLNLMLFAGLPEIGWENYYYTSVDEIQSHDKALYKWLTGM", "values": [
      {"measurement": "Km", "setting": "[7]", "value": "530 ± 10", "unit": "µM"},
      {"measurement": "kcat", "setting": "[7]", "value": "0.02 ± 0.01", "unit": "s⁻¹"}
    ]},
    {"molecule": "CtNDT (Chroococcidiopsis thermalis PCC 7203) (protein, homotetramer; residues 111 and 118 of the neighbouring subunit complete the site; expression host and tags only in supplement) MKRKIIYLASPYGFSQQQKTLLLPPIVRALEALGIEVWEPFARNNQIDFSQADWAYRVAQADLQDVKNCDGIFAVVNGTPPDEGVMVELGMAIALNKAIFLFRDDFRRCSDNERYPLNLMLFAGLPEIGWENYYYTSVDEIQSHDKALYKWLTGM", "values": [
      {"measurement": "Km", "setting": "[8]", "value": "920 ± 240", "unit": "µM"},
      {"measurement": "kcat", "setting": "[8]", "value": "0.01 ± 0.01", "unit": "s⁻¹"}
    ]},
    {"molecule": "CtNDT (Chroococcidiopsis thermalis PCC 7203; A9S/Y7F) (protein, homotetramer; residues 111 and 118 of the neighbouring subunit complete the site; expression host and tags only in supplement) MKRKIIFLSSPYGFSQQQKTLLLPPIVRALEALGIEVWEPFARNNQIDFSQADWAYRVAQADLQDVKNCDGIFAVVNGTPPDEGVMVELGMAIALNKAIFLFRDDFRRCSDNERYPLNLMLFAGLPEIGWENYYYTSVDEIQSHDKALYKWLTGM", "values": [
      {"measurement": "Km", "setting": "[7]", "value": 620, "unit": "µM"}
    ]},
    {"molecule": "CtNDT (Chroococcidiopsis thermalis PCC 7203; Y7F) (protein, homotetramer; residues 111 and 118 of the neighbouring subunit complete the site; expression host and tags only in supplement) MKRKIIFLASPYGFSQQQKTLLLPPIVRALEALGIEVWEPFARNNQIDFSQADWAYRVAQADLQDVKNCDGIFAVVNGTPPDEGVMVELGMAIALNKAIFLFRDDFRRCSDNERYPLNLMLFAGLPEIGWENYYYTSVDEIQSHDKALYKWLTGM", "values": [
      {"measurement": "Km", "setting": "[7]", "value": "710 ± 170", "unit": "µM"},
      {"measurement": "kcat", "setting": "[7]", "value": "0.03 ± 0.01", "unit": "s⁻¹"}
    ]},
    {"molecule": "CtNDT (Chroococcidiopsis thermalis PCC 7203; D62N) (protein, homotetramer; residues 111 and 118 of the neighbouring subunit complete the site; expression host and tags only in supplement) MKRKIIYLASPYGFSQQQKTLLLPPIVRALEALGIEVWEPFARNNQIDFSQADWAYRVAQANLQDVKNCDGIFAVVNGTPPDEGVMVELGMAIALNKAIFLFRDDFRRCSDNERYPLNLMLFAGLPEIGWENYYYTSVDEIQSHDKALYKWLTGM", "values": [
      {"measurement": "Km", "setting": "[7]", "value": "800 ± 90", "unit": "µM"},
      {"measurement": "kcat", "setting": "[7]", "value": "0.002 ± 0.001", "unit": "s⁻¹"}
    ]}
  ]
}
